The values that follow come from article PMC3463608.

This test deals with His-tagged exomer complex (S. cerevisiae) (UniProt Q12114). Put plainly: pull-down; His-exomer complex immobilized on Ni-NTA beads, incubated with 150 ug/ml purified GST-Chs3 fragments at RT for 30 min; washes with B88G + 1% Tween 20 and B88G; SDS-PAGE and Coomassie staining; bound fragment quantified, normalized to Chs5p in the lane and to the wt pull-down; two independent experiments.

B1: GST-Chs3 (1–170) D19AE21A (domain or fragment)
chain: MTGLNGDDPDDYYLNLNQAEASLLRSRHSVGSGAPHRQGSLVRPERSRLNNPDNPHFYYAQKTQEQMNHLDVLPSSTGVNPNATRRSGSLRSKGSVRSKFSGRETDSYLLQDMNTTDKKASVKISDEGVAEDEFDKDGDVDNFEESSTQPINKSIKPLRKETNDTLSFWQ
With B1, the level of binding, % of wt is 62 to 63 % of wt.
